The values below come from IntAct's records for PubMed 11042109.

B1: RING finger protein 11 (Mus musculus), Q9QYK7 (parent)
chain: MGNCLKSPTSDDISLLHESQSDRASFGEGTEPDQEPPPPYQEQVPVPIYHPTPSQTRLATQLTEEEQIRIAQRIGLIQHLPKGVYDPGRDGSEKKIRECVICMMDFVYGDPIRFLPCMHIYHLDCIDDWLMRSFTCPSCMEPVDAALLSSYETN
B2: WW domain-binding protein 1 (Mus musculus), P97764 (parent)
chain: MARASSRNSSEEAWGSLQAPQQQQSPAASSLEGAIWRRAGTQTRALDTILYHPQQSHLLRELCPGVNTQPYLCETGHCCGETGCCTYYYELWWFWLLWTVLILFSCCCAFRHRRAKLRLQQQQRQREINLLAYHGACHGAGPVPTGSLLDLRLLSAFKPPAYEDVVHHPGTPPPPYTVGPGYPWTTSSECTRCSSESSCSAHLEGTNVEGVSSQQSALPHQEGEPRAGLSPVHIPPSCRYRRLTGDSGIELCPCPDSSEGEPLKEARASASQPDLEDHSPCALPPDSVSQVPPMGLASSCGDIP
B3: Lipopolysaccharide-induced tumor necrosis factor-alpha factor homolog (Mus musculus), Q9JLJ0 (parent)
chain: MSAPGPYQAAAGPSVVPTAPPTYEETVGVNSYYPTPPAPMPGPATGLITGPDGKGMNPPSYYTQPVPVPNANAIAVQTVYVQQPVSFYDRPVQMCCPSCSKMIVTQLSYNAGALTWLSCGSLCLLGCVAGCCFIPFCVDALQDVDHYCPNCKALLGTYKRL
B4: WW domain-binding protein 2 (Mus musculus), P97765 (parent)
chain: MALNKNHSEGGGVIVNNTESILMSYDHVELTFNDMKNVPEAFKGTKKGTVYLTPYRVIFLSKGKDAMQSFMMPFYLMKDCEIKQPVFGANFIKGIVKAEAGGGWEGSASYKLTFTAGGAIEFGQRMLQVASQASRGEVPNGAYGYPYMPSGAYVFPPPVANGMYPCPPGYPYPPPPPEFYPGPPMMDGAMGYVQPPPPPYPGPMEPPVSGPSAPATPAAEAKAAEAAASAYYNPGNPHNVYMPTSQPPPPPYYPPEDKKTQ
B5: Protein TMEPAI (Mus musculus), Q9D7R2 (parent)
chain: MSPARATAQRSLFPSMEITELEFVQIVVIVVVMMVMVVMITCLLSHYKLSARSFISRHSQARRRDDGLSSEGCLWPSESTVSGGMPEPQVYAPPRPTDRLAVPPFIQRSRFQPTYPYLQHEIALPPTISLSDGEEPPPYQGPCTLQLRDPEQQLELNRESVRAPPNRTIFDSDLIDSTMLGGPCPPSSNSGISATCYSSGGRMEGPPPTYSEVIGHYPGSSFQHQQSNGPSSLLEGTRLHHSHIAPLENKEKEKQKGHPL
B6: NEDD4 family-interacting protein 1 (Mus musculus), Q8R0W6 (parent)
chain: MALALAALAAVEPACGSGYQQLQNEEEPGEPEQTAGDAPPPYSSITAESAAYFDYKDESGFPKPPSYNVATTLPSYDEAERTKTEATIPLVPGRDEDFVGRDDFDDTDQLRIGNDGIFMLTFFMAFLFNWIGFFLSFCLTTSAAGRYGAISGFGLSLIKWILIVRFSTYFPGYFDGQYWLWWVFLVLGFLLFLRGFINYAKVRKMPETFSNLPRTRVLFIY
B7: Protein BEAN1 (Mus musculus), Q9EQG5 (parent)
chain: MSFKRPCPLARYNRTSYFYPTTFSESSEHSHLLVSPVLVASAVIGVVITLSCITIIVGSIRRDRQARIQRHHHRHRRHHHHHRHRRRRHREYASGGHTHSRSSPRMPYACSPAEDWPPPLDVSSEGDVDVTVLWELYPDSPPGYEECMGPGATQLYVPTDAPPPYSMTDSCPRLNGALDSDSGQSRSHRQQEQRTQGQSRLHTVSMDTLPPYEAVCGTGSPSDLLPLPGPEPWPSNSQGSPIPTQAPMPSPERIV

In the first test the parent is B1. The note with it: with nedd4_mouse Nedd4, P46935.
Target sequence in this assay (P46935 whole entry): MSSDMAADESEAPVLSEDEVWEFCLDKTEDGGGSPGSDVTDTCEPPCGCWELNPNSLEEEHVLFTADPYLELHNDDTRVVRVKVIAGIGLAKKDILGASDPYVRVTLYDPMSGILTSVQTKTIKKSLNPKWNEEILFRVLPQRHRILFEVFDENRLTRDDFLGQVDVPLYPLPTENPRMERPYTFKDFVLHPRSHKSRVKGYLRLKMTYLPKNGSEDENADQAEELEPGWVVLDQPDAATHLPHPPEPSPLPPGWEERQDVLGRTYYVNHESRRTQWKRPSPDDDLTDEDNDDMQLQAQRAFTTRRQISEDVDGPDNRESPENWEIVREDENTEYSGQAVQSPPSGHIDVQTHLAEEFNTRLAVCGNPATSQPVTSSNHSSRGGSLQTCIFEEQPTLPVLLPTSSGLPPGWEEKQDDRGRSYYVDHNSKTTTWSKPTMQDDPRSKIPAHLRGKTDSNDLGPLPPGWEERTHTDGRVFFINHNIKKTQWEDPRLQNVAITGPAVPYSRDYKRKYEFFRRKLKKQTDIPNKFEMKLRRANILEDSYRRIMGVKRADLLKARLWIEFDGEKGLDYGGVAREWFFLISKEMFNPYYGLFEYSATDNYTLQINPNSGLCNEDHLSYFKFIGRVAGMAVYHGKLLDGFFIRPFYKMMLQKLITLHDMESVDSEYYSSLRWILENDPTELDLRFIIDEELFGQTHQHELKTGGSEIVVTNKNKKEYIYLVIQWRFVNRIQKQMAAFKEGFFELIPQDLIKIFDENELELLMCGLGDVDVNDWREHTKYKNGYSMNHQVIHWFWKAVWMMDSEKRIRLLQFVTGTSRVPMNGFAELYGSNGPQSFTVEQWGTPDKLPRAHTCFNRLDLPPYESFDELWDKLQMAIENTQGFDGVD
Take Y40A: the “effect of a mutation on the interaction” value was “disrupting interaction”.

In the next test the parent is B1. Conditions: with nedd4_mouse Nedd4, P46935. The source holds these as a separate data set.
Target sequence in this assay (P46935 whole entry): as above
Take Y40A: the “effect of a mutation on the interaction” value was “disrupting interaction strength”.

Variants of B2 are the subject of the next test. Conditions: with nedd4_mouse Nedd4, P46935.
Target sequence in this assay (P46935 whole entry): as above
For Y162A, the “effect of a mutation on the interaction” value is given as “disrupting interaction strength”.

A further test covers variants of B2. The note with it: with nedd4_mouse Nedd4, P46935. The source holds these as a separate data set.
Target sequence in this assay (P46935 whole entry): as above
On to Y176A, for which the “effect of a mutation on the interaction” value is reported as “disrupting interaction strength”.

In a further test the parent is B3. Conditions: with nedd4_mouse Nedd4, P46935.
Target sequence in this assay (P46935 whole entry): as above
Consider Y23A, for which the “effect of a mutation on the interaction” value is recorded as “disrupting interaction strength”.

Variants of B4 are the subject of a further test. The note with it: with nedd4_mouse Nedd4, P46935.
Target sequence in this assay (P46935 whole entry): as above
Take Y200A: the “effect of a mutation on the interaction” value is “decreasing interaction strength”.

In another test the parent is B4. The note with it: with nedd4_mouse Nedd4, P46935. This is another data set of the same source.
Y200A: the “effect of a mutation on the interaction” value is “decreasing interaction strength”.

In a further test the parent is B4. The note with it: with nedd4_mouse Nedd4, P46935. This is another data set of the same source.
Regarding Y200A, the “effect of a mutation on the interaction” value is “disrupting interaction strength”.

A further test covers variants of B4. The note with it: with nedd4_mouse Nedd4, P46935. The source holds these as a separate data set.
Consider Y252A, for which the “effect of a mutation on the interaction” value is reported as “decreasing interaction strength”.

In another test the parent is B5. Conditions: with nedd4_mouse Nedd4, P46935.
Consider Y210A, for which the “effect of a mutation on the interaction” value was “disrupting interaction strength”.

The variants in a further test derive from B5. The note with it: with nedd4_mouse Nedd4, P46935. This is another data set of the same source.
For Y210A, the “effect of a mutation on the interaction” value is on record as “disrupting interaction strength”.

The variants in the next test derive from B5. Conditions: with nedd4_mouse Nedd4, P46935. The source holds these as a separate data set.
For the variant Y139A, the “effect of a mutation on the interaction” value was “decreasing interaction strength”.

In another test the parent is B6. The note with it: with nedd4_mouse Nedd4, P46935.
On to Y42A, for which the “effect of a mutation on the interaction” value is “decreasing interaction strength”.

Variants of B7 are the subject of a further test. Conditions: with nedd4_mouse Nedd4, P46935.
For the variant Y144A, the “effect of a mutation on the interaction” value is “disrupting interaction strength”. With Y165A, the “effect of a mutation on the interaction” value is recorded as “disrupting interaction strength”. Still for that read-out and setting: in the case of Y144A;Y165A it was “disrupting interaction strength”.

Variants of B7 are the subject of the next test. Conditions: with nedd4_mouse Nedd4, P46935. The source holds these as a separate data set.
With Y144A;Y165A, the “effect of a mutation on the interaction” value is given as “disrupting interaction strength”.
